Test results from paper PMC12295887.

Key:
[1] = biological target: actin purified from rabbit skeletal muscle (m. longissimus dorsi) (rabbit) (UniProt P68135)
[2] = biological target: actin purified from rabbit skeletal muscle (m. longissimus dorsi) (rabbit) (UniProt P68135); remark: listed apart in the source
[3] = biological target: actin purified from rabbit skeletal muscle (m. longissimus dorsi) (rabbit) (UniProt P68135); remark: listed apart in the source

peak pyrene fluorescence intensity (total amount of F-actin), 4 µM actin, PEVKII 3.25-32.5 nM, against actin alone [1]: 22%
time to reach the peak pyrene fluorescence intensity, 4 µM actin, PEVKII 3.25-32.5 nM, against actin alone [1]: > 3 times faster
initial rate of actin polymerization (pyrene assay, 4 µM actin), PEVKII 3.25-32.5 nM, against actin alone [2]: > 30 fold
pyrene-actin fluorescence excitation and emission intensity after 800 s of polymerization, 4 µM actin (10% pyrene-labeled) with 5.5 nM PEVKII, against actin alone [3]: 16%
Substance: PEVKII, the middle one-third segment of the human skeletal muscle titin PEVK domain (domain or fragment)
